In US12109252B2, “Systems, methods and products for minimizing tissue reactions and tissue injury at an infusion site” (Cell and Molecular Tissue Engineering, LLC, priority 2016, dated 2024):
“Also recorded” adds a separate entry of the source. Each block holds one substance with its values, some of them ahead of it.

Key:
[1] = test system: Triton X100 extract of human PMN; experiment: Insulin degradation by PMN extracts +/- inhibitors (PAGE); type: biochemical
Text: (§1) In FIG. 53, I=insulin, T=Trypsin, E=Elastase, IDE-Insulin Degrading Enzyme, PMN=Triton X100 extract of human PMN, mwn=molecular weight marker.
(§2) In this example, we tested the ability of various anti-proteases to inhibit insulin degradation by leukocyte extracts and proteases.

[2] = test system: leukocyte proteases including neutrophil elastase, trypsin, and insulin-degrading enzyme; experiment: Insulin degradation by leukocyte proteases (SDS-PAGE) +/- inhibitors; type: biochemical; settings: in vitro
Description: (§3) To characterize the ability of purified proteases or leukocyte extracts to degrade FITC-insulin in vitro we analyzed the impact of cell culture supernatants and cell lysates on insulin degradation using 10-20% SDS-PAGE gels. This was performed +/−anti-protease cocktails to characterize proteases responsible for insulin degradation. The functional activity of individual leukocyte proteases was analyzed using protease PAGE gels +/−protease inhibitors. This study clarifies the role of leukocytes in insulin therapy. (FIG. 13a, 13b, 13c and FIG. 14).

[3] = test system: Trypsin; experiment: Insulin degradation by trypsin +/- anti-proteases (PAGE); type: biochemical
Description: as §3, with “This study clarifies the role of leukocytes in insulin therapy.” left out
as §1, §2

[4] = biological target: T1, Elastase (Homo sapiens, UniProt P08246); experiment: Insulin degradation by elastase +/- anti-proteases (PAGE); type: biochemical
T1 sequence (P08246 30-267): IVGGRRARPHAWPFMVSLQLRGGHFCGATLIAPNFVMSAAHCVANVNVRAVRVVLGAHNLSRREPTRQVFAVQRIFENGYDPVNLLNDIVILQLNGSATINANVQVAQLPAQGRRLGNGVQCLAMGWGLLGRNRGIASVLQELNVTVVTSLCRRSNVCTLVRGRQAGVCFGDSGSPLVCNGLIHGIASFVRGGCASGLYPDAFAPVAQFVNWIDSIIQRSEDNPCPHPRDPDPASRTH
Description: as §3, with “This study clarifies the role of leukocytes in insulin therapy.” left out
as §1, §2

[5] = test system: human mast cells; experiment: Mast cell viability (alamar Assay); type: cell-based
Text: (§4) FIGS. 48-49 show the impact of insulin on mast cell viability and degranulation. Mast cells (MC) are key skin “sentinel” cells and are generally the first tissue cell population activated by tissue trauma triggering acute inflammatory or allergic reactions and serve a central role in chronic inflammation and wound healing. Recent results from our laboratory indicate that skin mast cells affect glucose sensor induced tissue reactions and CGM function (13).

[6] = biological target: Insulin degrading enzyme (IDE) (Homo sapiens, UniProt P14735); experiment: Insulin degradation by insulin degrading enzyme +/- anti-proteases (PAGE); type: biochemical
Description: as §3, with “This study clarifies the role of leukocytes in insulin therapy.” left out
as §1, §2

[7] = test system: HMC-1 human mast cells; experiment: Mast cell degranulation/activation; type: cell-based; settings: in vitro
Text: as §4

[8] = test system: air pouch; experiment: Leukocyte influx into murine air pouch model (lavage cell count); settings: injection or infusion into air pouch
Description: For this model, sterile air was injected subcutaneously into mouse skin creating a sustained compartment (pouch) for injection of test agents (FIG. 2). At various times post-air/post-agent injection, the “air pouch” can be lavaged, and the cell and fluid content removed and characterized using standard technology (FIG. 2). After lavage, tissue reactions in the air pouch walls can also be determined using standard histopathology/immunohistochemistry (FIG. 2).
We adapted this model for the evaluation of tissue responses to infusion of insulin, excipients, factors, drugs and control solutions (e.g. saline). […] Initially, CD-1 mice received air injections (3 mL) into the dorsal site of the low back to induce the air pouch in each animal. On the following day individual mice received infusions of either saline or insulin diluent. […] Exudate was then centrifuged and a TC10 automated cell counter determined the total viable leukocyte cells. The potential inflammatory effect of insulin diluent was evaluated through the analysis on the mouse leukocyte count and exudate concentrations in the inflamed air pouch cavity.
Air was injected subcutaneously into the mouse skin creating a sustained compartment (pouch) for injection of diluent or saline (control). […] The resulting fluid was characterized for cell number (auto-hemo-cytometer), and cell type using fluorescence activated Cell sorting (FACS).

[9] = test system: human peripheral blood mononuclear cells (PMBC); experiment: Alamar Blue cell viability of human PBMC; type: cell-based
Description: For these in vitro studies, generally either human or mouse leukocyte cells or cell lines were cultured in vitro in the presence or absence of insulin preservatives or fibrils at various concentrations. at selected times cell viability and or cell activation has (cytokine expression) was determined. The results of these studies are presented below the general work flow for these studies are located in FIG. 61. […] Insulin diluent contains the formulation components of commercial insulin solutions but without the insulin protein itself. For these studies we utilized the work flow described in FIG. 61. […] At physiologic concentrations, both insulin formulation and insulin fibrils are toxic for human cells in vitro. […] The Protocol was: Hu-PBMC+insulin (72 hr)=>Assay Interleukin 8 (IL-8). […] The Protocol was Hu-PBMC+insulin (7 days)=>Assay Interferon gamma. […] The in vivo activation of these cells would cause inflammation and tissue destruction resulting in loss of effective CSII function.

[10] = test system: human peripheral blood mononuclear cells (PBMC); experiment: In vitro morphology of human PBMC after exposure; type: cell-based
Description: FIG. 6. Toxicity of insulin and fibrils in vitro: Preliminary in vitro morphology of human peripheral blood mononuclear cells (PBMC) after exposure to control media, high (1.0 mg/mL), and low (0.1 mg/mL) concentrations of insulin or insulin fibrils (i.e. insulin degradation byproducts) FIG. 6). Healthy control cells [Left column] show a rounded morphology.

[11] = test system: infusion site tissue; experiment: Tissue toxicity of infusion (open loop CSII mouse model); settings: open loop delivery system
Description: Combined CSII and CGM mouse model (A B, C). Non-obese diabetic (NOD) mouse implanted with Abbott Navigator glucose sensor (GS) and a short polymer infusion set for CSII. The set and sensor were placed sufficiently far apart to avoid interference. Open Loop CGM and CSII insulin infusion system cage and assembly, that allows animal ambulation and mobility during simultaneous continuous glucose sensing and insulin infusion.
Tissue Toxicity of Insulin in vivo: Infusion: The sectioned polymer catheter wall is visible and marked with a black asterisk (*) in all tissues. […] Infusion was accomplished using the open loop delivery system described in FIG. 5.

[12] = test system: human PBMCs; experiment: Pro-inflammatory cytokine expression by human PBMC in vitro; type: cell-based
Description: For these in vitro studies, generally either human or mouse leukocyte cells or cell lines were cultured in vitro in the presence or absence of insulin preservatives or fibrils at various concentrations. at selected times cell viability and or cell activation has (cytokine expression) was determined. The results of these studies are presented below the general work flow for these studies are located in FIG. 61.
FIG. 7. Our in vitro studies Insulin and excipients induced expression of pro-inflammatory cytokines in PBMC in vitro. […] Similar data has been obtained with human cell lines (THP-1) and mouse macrophages (MQ). This supports our belief that I/E can induce inflammation in vivo, and that chronic infusion of IFP can cause chronic inflammation and fibrosis.
For these studies we utilized the work flow described in FIG. 61. […] At physiologic concentrations, both insulin formulation and insulin fibrils are toxic for human cells in vitro. […] The Protocol was: Hu-PBMC+insulin (72 hr)=>Assay Interleukin 8 (IL-8). […] The Protocol was Hu-PBMC+insulin (7 days)=>Assay Interferon gamma. […] The in vivo activation of these cells would cause inflammation and tissue destruction resulting in loss of effective CSII function.

[13] = test system: human neutrophils; experiment: Survival of human PMNs in serial dilutions; type: cell-based; settings: 3 days, 1:48 dilution
Text: As the concentration increased, the number of cells surviving decreased for both insulin and insulin diluent.

[14] = test system: mouse mast cells; experiment: Mast cell morphology/toxicity in vitro; type: cell-based; settings: physiologic concentrations
Text: FIGS. 46-47 show the impact of insulin on mast cell morphology. At physiologic concentrations, both insulin formulations fibrils (not shown) are toxic to mouse mast cells in vitro.

Substance: AAT: alpha-1-antitrypsin, natural protease inhibitor
inhibition of insulin degradation by PMN extracts [1]: completely inhibits; also recorded: blocked
reduction of activity of insulin-degrading leukocyte proteases [2]: reduced
blocking of insulin degradation by trypsin [3]: blocked

degradation of insulin by elastase [4]: degraded
Substance: FITC-insulin: fluorescent insulin (FITC-insulin; Sigma, St. Louis, MO)

blocking of insulin degradation by elastase [4]: blocked
Substance: aprotinin
inhibition of insulin degradation by PMN extracts [1]: blocked
reduction of activity of insulin-degrading leukocyte proteases [2]: reduced
blocking of insulin degradation by trypsin [3]: blocked

Substance: insulin: commercial insulin formulation: complete insulin (insulin plus preservatives)
mast cell death (alamar Assay) ([5]; increasing concentration): increasing cell death
toxicity to human mast cells ([5]; physiologic concentrations): toxic
degradation of insulin by insulin degrading enzyme [6]: cleaves insulin into several smaller peptides
mast cell degranulation / activation [7]: activate MCs
mast cell degranulation / activation ([7]; listed as insulin formulations): cause mast cell degrandulation
inflammation / tissue reactions in air pouch vs saline [8]: cause tissue reactions
cell viability (Alamar Blue assay) ([9]; 3 days of exposure to increasing concentrations): decreasing cell viability
toxicity for human cells in vitro ([9]; physiologic concentrations): toxic
PBMC morphology ([10]; high (1.0 mg/mL) concentration): tight contracted morphology indicative of cell death/dying
PBMC morphology ([10]; low (0.1 mg/mL) concentration): spread, expanded morphology indicative of cell injury/activation
degradation of insulin by elastase [4]: cleaves insulin at many sites
tissue reaction at infusion site surrounding catheter [11]: extensive cell damage, inflammation and cellular infiltrate
pro-inflammatory activation of Hu-PBMC ([12]; IL-8 72 hr, Interferon gamma 7 days): cause pro-inflammatory activation
expression of pro-inflammatory cytokines including IL-6, IL-8 and TNFa ([12]; PBMC in vitro): induce expression of pro-inflammatory cytokines
number of PMN's surviving vs buffer alone [13]: significantly fewer cells surviving
toxicity to mouse mast cells [14]: toxic
